Experimental findings from patent US20040152079A1 (Scripps Research, published 2004) are described below.

First the molecules themselves.
B1: human mini TyrRS (ligand)
chain: MGDAPSPEEKLHLITRNLQEVLGEEKLKEILKERELKIYWGTATTGKPHVAYFVPMSKIADFLKAGCEVTILFADLHAYLDNMKAPWELLELRVSYYENVIKAMLESIGVPLEKLKFIKGTDYQLSKEYTLDVYRLSSVVTQHDSKKAGAEVVKQVEHPLLSGLLYPGLQALDEEYLKVDAQFGGIDQRKIFTFAEKYLPALGYSKRVHLMNPMVPGLTGSKMSSSEEESKIDLLDRKEDVKKKLKKAFCEPGNVENNGVLSFIKHVLFPLKSEFVILRDEKWGGNKTYTAYVDLEKDFAAEVVHPGDLKNSVEVALNKLLDPIREKFNTPALKKLASAAYPDPSKQKPMAKGPAKNSEPEEVILEHHHHHH
modifications: Radioiodinated (125I) where used as the labelled ligand; iodinated residues not stated. Runs as a homodimer on gel filtration.
notes: Recombinant, made in E. coli
B2: type A IL-8 receptor (receptor, UniProt P25024 1-350, looked up)
chain: MSNITDPQMWDFDDLNFTGMPPADEDYSPCMLETETLNKYVVIIAYALVFLLSLLGNSLVMLVILYSRVGRSVTDVYLLNLALADLLFALTLPIWAASKVNGWIFGTFLCKVVSLLKEVNFYSGILLLACISVDRYLAIVHATRTLTQKRHLVKFVCLGCWGLSMNLSLPFFLFRQAYHPNNSSPVCYEVLGNDTAKWRMVLRILPHTFGFIVPLFVMLFCYGFTLRTLFKAHMGQKHRAMRVIFAVVLIFLLCWLPYNLVLLADTLMRTQVIQESCERRNNIGRALDATEILGFLHSCLNPIIYAFIGQNFRHGFLKILAMHGLVSKEFLARHRVTSYTSSSVNVSSNL
notes: whole, on cells; also called IL-8 receptor type A; CXCR1

Test [1] has as its target PMN receptor for mini TyrRS (on human PMNs) (human). The test is described as follows: Scatchard analysis of ^125I-mini TyrRS binding to human PMNs at 4 C. From the text:
The supernatant was aspirated, and the cell sediment was resuspended using EcoLite (ICN Biomedicals, Irvine, Calif.) and analyzed in a scintillation counter.

Test [2] concerns the target B1. The test is described as follows: radioligand binding (Scatchard) to RBL2H3 cells transfected with the type A IL-8 receptor. The protocol:
Following incubation, cells were separated from unbound radioactivity as described herein.
Untransfected RBL2H3 cells express neither the type A nor type B receptors.

Broadly, the Kd is the concentration at which binding is half-saturated. B1 displayed a Kd in test [1] of 21 nM. B2 returned a Kd in test [2] of 8 nM.
